Numbering of substitutions follows the chain as printed. In names and notes the source's numbering stands.
B1: S167D-catalase (phospho-mimic mutant of human catalase) (enzyme, UniProt P04040 1-527, looked up)
chain: MADSRDPASDQMQHWKEQRAAQKADVLTTGAGNPVGDKLNVITVGPRGPLLVQDVVFTDEMAHFDRERIPERVVHAKGAGAFGYFEVTHDITKYSKAKVFEHIGKKTPIAVRFSTVAGESGSADTVRDPRGFAVKFYTEDGNWDLVGNNTPIFFIRDPILFPSFIHDQKRNPQTHLKDPDMVWDFWSLRPESLHQVSFLFSDRGIPDGHRHMNGYGSHTFKLVNANGEAVYCKFHYKTDQGIKNLSVEDAARLSQEDPDYGIRDLFNAIATGKYPSWTFYIQVMTFNQAETFPFNPFDLTKVWPHKDYPLIPVGKLVLNRNPVNYFAEVEQIAFDPSNMPPGIEASPDKMLQGRLFAYPDTHRHRLGPNYLHIPVNCPYRARVANYQRDGPMCMQDNQGGAPNYYPNSFGAPEQQPSALEHSIQYSGEVRRFNTANDDNVTQVRAFYVNVLNEEQRKRLCENIAGHLKDAQIFIQKKAVKNFTEVHPDYGSHIQALLDKYNAEKPKNAIHTFVQSGSHLAAREKANL
B2: recombinant human wildtype catalase (enzyme, UniProt P04040 1-527, looked up)
chain: B1 chain with D167S
B3: recombinant human wildtype catalase incubated with PKCδ (phosphorylated at S167) (enzyme, UniProt P04040 1-527, looked up)
chain: B1 chain with D167S
modifications: phosphoserine at 167

What was measured:
[1] = target: the molecule itself; assay: cell-based or functional assay
SEC [2] = target: the molecule itself; assay: SEC
SEC [3] = target: the molecule itself; assay: SEC; remark: listed apart in the source

Protein	rate of H2O2 decomposition by the purified protein, against wildtype catalase [1] [fold]	stoichiometry N (SEC [2])	Dimer (%) (SEC [3])	Tetramer (%) (SEC [3])
B1	2	4	9.2	44.4
B2		2	53	4.78
B3		4	6.23	51.8

Reference: publication PMC3945115 (Free radical biology & medicine, 2013)
